Laboratory results: US20210338724A1

How the values were obtained:
[1] = molecular target: IL-2Rα, IL-2Rβ and common γ chain on CTLL-2 cells; experiment: cell-based or functional assay
[2] = molecular target: IL-2Rβ and common γ chain on 32Dβ cells; experiment: cell-based or functional assay
TGFβ1 (R&D systems) = TGFβ1 (R&D systems) (UniProt P01137); experiment: cell-based or functional assay
[3] = molecular target: IL-18/TF/IL-15:IL-12/IL-15RαSu protein complex (18t15-12s) (human); experiment: sandwich ELISA; the concentration is that of the titrated 18t15-12s; anti-human tissue factor capture, BAM 247 detection at a fixed concentration
[4] = molecular target: IL-18/TF/IL-15:IL-12/IL-15RαSu protein complex (18t15-12s) (human); experiment: sandwich ELISA; the concentration is that of the titrated 18t15-12s; anti-human tissue factor capture, D045-6 detection at a fixed concentration

Sequence of IL-18/TF/IL-15:IL-12/IL-15RαSu protein complex (18t15-12s) (human) (chain, as listed by the source, chain 1 of 2): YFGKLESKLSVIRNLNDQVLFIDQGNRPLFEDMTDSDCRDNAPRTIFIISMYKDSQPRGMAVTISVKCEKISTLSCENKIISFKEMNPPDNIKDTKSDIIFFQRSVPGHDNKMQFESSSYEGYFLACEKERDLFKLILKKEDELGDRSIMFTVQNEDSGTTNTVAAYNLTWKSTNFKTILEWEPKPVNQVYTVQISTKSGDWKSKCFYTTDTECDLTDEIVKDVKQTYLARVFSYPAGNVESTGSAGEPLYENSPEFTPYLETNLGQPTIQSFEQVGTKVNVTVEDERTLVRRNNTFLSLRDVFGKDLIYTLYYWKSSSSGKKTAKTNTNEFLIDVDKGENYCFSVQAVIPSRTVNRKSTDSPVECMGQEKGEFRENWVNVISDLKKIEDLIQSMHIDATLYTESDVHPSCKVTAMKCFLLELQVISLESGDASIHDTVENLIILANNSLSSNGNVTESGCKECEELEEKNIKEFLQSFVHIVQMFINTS
Sequence of IL-18/TF/IL-15:IL-12/IL-15RαSu protein complex (18t15-12s) (human) (chain, as listed by the source, chain 2 of 2): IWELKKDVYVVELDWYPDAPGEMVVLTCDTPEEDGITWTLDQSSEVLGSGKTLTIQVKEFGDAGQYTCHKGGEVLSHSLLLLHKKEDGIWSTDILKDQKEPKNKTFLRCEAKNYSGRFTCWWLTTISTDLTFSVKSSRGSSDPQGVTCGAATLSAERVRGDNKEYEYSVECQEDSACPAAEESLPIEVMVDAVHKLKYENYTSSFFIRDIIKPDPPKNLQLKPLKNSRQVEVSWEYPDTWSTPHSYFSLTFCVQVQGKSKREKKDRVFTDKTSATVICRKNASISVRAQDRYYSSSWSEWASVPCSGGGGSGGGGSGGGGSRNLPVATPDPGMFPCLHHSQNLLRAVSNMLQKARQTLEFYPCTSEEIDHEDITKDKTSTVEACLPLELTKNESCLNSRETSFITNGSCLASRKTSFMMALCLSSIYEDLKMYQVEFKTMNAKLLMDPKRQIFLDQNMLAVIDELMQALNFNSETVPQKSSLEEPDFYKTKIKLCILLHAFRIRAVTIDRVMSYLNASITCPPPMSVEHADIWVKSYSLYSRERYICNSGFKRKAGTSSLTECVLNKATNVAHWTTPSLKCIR
Sequence of UniProt P01137 (P01137 279-390 limits assumed): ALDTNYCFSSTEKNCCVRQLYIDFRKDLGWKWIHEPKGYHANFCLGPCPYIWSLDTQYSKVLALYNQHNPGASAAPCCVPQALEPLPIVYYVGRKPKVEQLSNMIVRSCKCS

Substance “recombinant IL-2 (from UniProt P60568 21-153) (ligand)” has an EC50, CTLL-2 cell proliferation (WST1) [1] of 0.548 nM and an EC50, 32Dβ cell proliferation (WST1) [2] of 0.14 nM.
With TGFR-Fc (R&D Systems) (Fc fusion) the IC50, inhibition of TGFβ1 activity in HEK-Blue TGFβ reporter cells (QUANTI-Blue OD) (TGFβ1 (R&D systems)) was 0.461 nM.
Substance “recombinant IL2 (Proleukin) (from UniProt P60568 22-153) (ligand)” has an EC50, CTLL-2 cell proliferation (WST1) [1] of 0.253 nM and an EC50, 32Dβ cell proliferation (WST1) [2] of 0.0655 nM.
For “recombinant IL-15 (from UniProt P40933 49-162) (ligand)”, the EC50, 32Dβ cell proliferation (WST1) [2] was 0.0106 nM.
“biotinylated anti-human IL-15 detection antibody (BAM 247)” gave an EC50 (read off the curve) [3] of 0.01 µg/mL.
With “biotinylated anti-human IL-18 detection antibody (D045-6)” the EC50 (read off the curve) [4] was 0.03 µg/mL.
